Laboratory results reported in patent US20250313631A1 (HUMMINGBIRD BIOSCIENCE PTE, published 2025).
Read-outs that look alike come from different tables or passages of the source. Blank lines part the entries; values can stand above or below the binder they belong to.

Columns and labels:
[1] = target: T1, recombinant human VISTA (His-tagged) (human, UniProt Q9H7M9 33-194); assay: ELISA, plate coated with human VISTA; unit nM from the legend paragraph 698
T1 construct: bought soluble protein (Sino Biological); also called hVISTA; human VISTA polypeptide

[2] = target: T1, recombinant human VISTA (His-tagged); assay: ELISA, plate coated with human VISTA; unit nM from the legend paragraph 697
[3] = target: T2, recombinant mouse VISTA (His-tagged) (mouse, UniProt Q9D659 33-191); assay: ELISA, plate coated with mouse VISTA
T2 construct: also called murine VISTA; mVISTA
T2 sequence (looked up): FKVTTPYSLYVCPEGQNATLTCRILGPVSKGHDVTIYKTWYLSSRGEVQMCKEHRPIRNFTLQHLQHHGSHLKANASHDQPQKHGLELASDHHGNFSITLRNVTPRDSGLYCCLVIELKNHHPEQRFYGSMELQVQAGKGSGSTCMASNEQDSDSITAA

[4] = target: T2, recombinant mouse VISTA (His-tagged); assay: ELISA, plate coated with mouse VISTA; unit nM from the legend paragraph 698
[5] = target: T1, recombinant human VISTA (His-tagged); assay: BLI (Octet), 1:1 global fit, His-tagged human VISTA captured
[6] = target: T3, recombinant cynomolgus macaque VISTA (His-tagged) (cynomolgus macaque, UniProt A0A7N9IB00 33-194); assay: ELISA, plate coated with cyno VISTA
T3 construct: also called cyno VISTA; cynomolgus monkey VISTA

[7] = target: T1, recombinant human VISTA (His-tagged); assay: ELISA, plate coated with human VISTA
[8] = target: T4, recombinant rat VISTA (His-tagged) (rat, UniProt A0ABK0L5H3 33-192); assay: ELISA, plate coated with rat VISTA
T4 sequence: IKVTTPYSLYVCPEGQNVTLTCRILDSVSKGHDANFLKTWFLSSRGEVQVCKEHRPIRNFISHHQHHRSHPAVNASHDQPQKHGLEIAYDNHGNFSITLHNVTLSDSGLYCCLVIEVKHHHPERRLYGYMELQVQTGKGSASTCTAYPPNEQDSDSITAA

[9] = target: T2, recombinant mouse VISTA (His-tagged); assay: BLI (Octet), 1:1 global fit, His-tagged mouse VISTA captured
human B7H7 = target: T5, human B7H7 (human, UniProt Q9UM44 23-344); assay: ELISA, plate coated with the antigen
T5 construct: also called HHLA2
T5 sequence (looked up): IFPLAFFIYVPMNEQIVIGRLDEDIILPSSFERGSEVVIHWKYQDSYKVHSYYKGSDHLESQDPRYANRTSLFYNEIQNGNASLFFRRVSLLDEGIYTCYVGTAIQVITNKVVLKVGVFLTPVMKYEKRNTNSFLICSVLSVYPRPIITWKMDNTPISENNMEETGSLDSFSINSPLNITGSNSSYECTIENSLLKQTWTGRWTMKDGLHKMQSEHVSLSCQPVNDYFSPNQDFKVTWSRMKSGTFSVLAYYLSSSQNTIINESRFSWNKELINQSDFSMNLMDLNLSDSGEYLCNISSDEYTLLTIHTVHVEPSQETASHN

human B7H6 = target: T6, human B7H6 (human, UniProt Q68D85 25-262); assay: ELISA, plate coated with the antigen
T6 construct: also called NCR3LG1
T6 sequence (looked up): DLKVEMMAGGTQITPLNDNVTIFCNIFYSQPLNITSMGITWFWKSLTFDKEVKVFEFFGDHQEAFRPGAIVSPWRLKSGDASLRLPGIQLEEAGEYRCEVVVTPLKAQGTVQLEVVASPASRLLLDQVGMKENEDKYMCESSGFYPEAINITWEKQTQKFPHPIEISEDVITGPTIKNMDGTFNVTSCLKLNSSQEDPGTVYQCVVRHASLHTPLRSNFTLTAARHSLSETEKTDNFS

human B7H3 = target: T7, human B7H3 (human, UniProt Q5ZPR3 29-461, limits assumed); assay: ELISA, plate coated with the antigen
T7 construct: also called CD276
T7 sequence (looked up): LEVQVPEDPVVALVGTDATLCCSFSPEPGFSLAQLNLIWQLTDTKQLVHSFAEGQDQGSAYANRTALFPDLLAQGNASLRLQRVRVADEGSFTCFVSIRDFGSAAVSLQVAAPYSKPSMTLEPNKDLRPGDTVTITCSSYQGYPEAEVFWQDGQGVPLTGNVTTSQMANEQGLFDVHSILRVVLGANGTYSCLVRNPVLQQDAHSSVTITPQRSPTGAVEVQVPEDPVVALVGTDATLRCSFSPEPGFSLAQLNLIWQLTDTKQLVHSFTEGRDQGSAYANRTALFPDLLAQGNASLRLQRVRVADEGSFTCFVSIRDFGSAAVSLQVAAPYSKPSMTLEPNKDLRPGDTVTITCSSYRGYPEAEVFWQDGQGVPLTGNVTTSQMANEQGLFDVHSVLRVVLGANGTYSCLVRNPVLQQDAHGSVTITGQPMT

human PD-1 = human PD-1 (human, UniProt Q15116 25-167); assay: ELISA, plate coated with the antigen
human PD-1, sequence (Q15116 25-167 limits assumed): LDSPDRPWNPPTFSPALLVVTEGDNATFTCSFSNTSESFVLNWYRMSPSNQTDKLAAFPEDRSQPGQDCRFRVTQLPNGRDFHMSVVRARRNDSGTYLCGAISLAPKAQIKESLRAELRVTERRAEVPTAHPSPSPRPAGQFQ

human B7H4 = target: T8, human B7H4 (human, UniProt Q7Z7D3 25-258, limits assumed); assay: ELISA, plate coated with the antigen
T8 construct: also called VTCN1
T8 sequence (looked up): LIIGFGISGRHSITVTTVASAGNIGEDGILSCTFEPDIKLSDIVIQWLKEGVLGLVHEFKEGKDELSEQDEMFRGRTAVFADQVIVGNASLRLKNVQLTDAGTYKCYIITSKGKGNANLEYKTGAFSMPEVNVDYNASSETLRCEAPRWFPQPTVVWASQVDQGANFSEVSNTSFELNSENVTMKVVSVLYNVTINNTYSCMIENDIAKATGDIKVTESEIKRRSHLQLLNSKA

human CTLA4 = human CTLA4 (human, UniProt P16410 36-162); assay: ELISA, plate coated with the antigen
human CTLA4, sequence (P16410 36-162 limits assumed): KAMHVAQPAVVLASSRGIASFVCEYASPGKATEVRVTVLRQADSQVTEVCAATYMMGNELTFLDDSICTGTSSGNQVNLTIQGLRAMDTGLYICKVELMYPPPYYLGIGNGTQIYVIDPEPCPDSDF

[10] = target: T2, recombinant mouse VISTA (His-tagged); assay: BLI (Octet), 1:1 global fit, His-tagged mouse VISTA captured; remark: listed apart in the source
human PD-L1 = target: T9, human PD-L1 (human, UniProt Q9NZQ7 19-239); assay: BLI (Octet), His-tagged human PD-L1 on anti-Penta-HIS biosensor, antibody 500-15.6 nM
T9 construct: captured through a His tag in the BLI experiments; also called hPD-L1; B7H1/PDL-1
T9 sequence (Q9NZQ7 19-239 limits assumed): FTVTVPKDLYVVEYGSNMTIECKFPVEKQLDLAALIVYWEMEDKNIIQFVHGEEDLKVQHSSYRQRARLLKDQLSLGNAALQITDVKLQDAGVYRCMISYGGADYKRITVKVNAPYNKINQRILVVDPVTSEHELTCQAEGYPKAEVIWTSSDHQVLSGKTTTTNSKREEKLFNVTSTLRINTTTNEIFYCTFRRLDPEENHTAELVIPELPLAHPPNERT
Method: Finally, the biosensors were incubated for 120 sec in PBS pH 7.2 to obtain the dissociation curves. Kinetic and affinity constants were calculated by global fitting of the association and dissociation data to a 1:1 binding model.

[11] = target: T2, recombinant mouse VISTA (His-tagged); assay: ELISA, plate coated with mouse VISTA; unit nM from the legend paragraph 697
[12] = target: T1, recombinant human VISTA (His-tagged); assay: ELISA, plate coated with human VISTA; remark: listed apart in the source
[13] = target: T10, mouse VISTA expressed on cells (mouse, UniProt Q9D659 33-308); assay: flow cytometry on cells transfected with murine VISTA
T10 construct: whole, on cells; also called murine VISTA on transfected cells; VISTA on mouse CD11b+ myeloid cells
T10 sequence (looked up): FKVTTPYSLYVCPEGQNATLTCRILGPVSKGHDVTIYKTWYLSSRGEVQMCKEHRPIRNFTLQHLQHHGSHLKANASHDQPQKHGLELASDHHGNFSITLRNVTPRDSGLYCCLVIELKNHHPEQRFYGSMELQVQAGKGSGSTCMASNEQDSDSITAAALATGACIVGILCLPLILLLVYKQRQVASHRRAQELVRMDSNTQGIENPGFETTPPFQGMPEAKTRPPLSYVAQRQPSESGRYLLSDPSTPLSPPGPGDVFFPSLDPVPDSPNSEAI

EC50 [1]: 0.02 nM
EC50 [2]: 0.0032 nM
EC50 [3]: 0.04 nM
EC50 [4]: 0.028 nM
Kd [5]: < 0.001 nM
koff [5]: < 1e-07 s⁻¹
kon [5]: 623000 M⁻¹ s⁻¹
EC50 [6]: 0.0321 nM
EC50 [7]: 0.0408 nM
EC50 [8]: 0.224 nM
Kd [9]: < 0.001 nM
koff [9]: < 1e-07 s⁻¹
kon [9]: 570000 M⁻¹ s⁻¹
binding result (human B7H7): no binding (tested: log -7.5 M)
binding result (human B7H6): no binding (tested: log -7.5 M)
binding result (human B7H3): no binding (tested: log -7.5 M)
binding result (human PD-1): no binding (tested: log -7.5 M)
binding result (human B7H4): no binding (tested: log -7.5 M)
binding result (human CTLA4): no binding (tested: log -7.5 M)
Kd [10]: < 0.001 nM
koff [10]: < 1e-07 s⁻¹
kon [10]: 344000 M⁻¹ s⁻¹
binding result (human PD-L1): no binding (tested: 500 nM)
EC50 [11]: 0.003 nM
EC50 (read off the curve) [12]: ~0.02 nM
B1: anti-VISTA clone V4-C31 IgG1 (antibody, V domains shown)
VH: QVQLQESGPGLVKPSDTLSLTCTVSGYSITSDYTWNWIRQTPGKGLEWIGHITYSGSVSYNPSLRSRVTISRDTSKNQFSLKLSSVTAADTATYSCARALYYPWYFDVWGTGTTVTVSS
VL: EIVLTQSPATLSLSPGERATLSCRASSSVGYIHWYQQKPGQAPRPLIYATYYRTTGIPARFSGSGSGTDNTLTISSLEPEDSAVYYCQQWSSYPPITFGGGTKLEVKR

binding result [13]: binds
B2: anti-VISTA clone 13D5p IgG1 (antibody, V domains shown)
VH: QVQLQQSGAELVRPGTSVKISCKASGYTFTNYWLGWVKQRPGHGLEWIGDIYPGGGYTNYNEKFKGKATLTADTSSSTAYMQLSSLTSEDSAVYFCARGGYYYGSSWYFDVWGAGTTVTVSS
VL: DVLMTQTPLSLPVSLGDQASISCRSSQSIVHSNGNTYLEWYLQKPGQSPKLLIYKVSNRFSGVPDRFSGSGSGTDFTLKISRVEAEDLGVYYCFQGSHVPPTFGGGTKLEIKR
